Data on 40 sequences can be found in the nanobody polyreactivity screen of Harvey et al. (2022).

The data set can be described thus: yeast display, Sf9 membrane polyspecificity reagent, FACS + sequencing; frameworks hold sequencing errors. The method in brief:
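Genes from sorted yeast were amplified by colony PCR, read by MiSeq 2 × 250 sequencing and filtered on CDR length. These cells carried a synthetic nanobody library in Saccharomyces cerevisiae BJ5465 and were sorted by FACS into low and high (top ~1%) gates on anti-HA and streptavidin fluorescence. Polyreactivity is labelled according to the gate of origin.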
Regarding “QVQLVESGGGLVQAGGSLRLSCAASGFIFSGYAMGWSRQAPGKERELVAAITWSGSNTFYADSVKGRFTISRDNAKNTVYLQMNSLKPEDTAVYYCNAVSKYKRSDYYYWGQGTQVTVSS”, the “polyreactivity (PSR sort gate)” value was “high polyreactivity”.
Next, “QVQLVESGGGLVQAGGSLRLSCAASGFIFSGYAMGWYRQAPGKEREFVAAISWSGSSTYYADSVKGRFTISRDNAKNTVYLQMNSLKPEDTALYYCNAVRQHPPRYSRYDYWGQGTQVTVSS”: “high polyreactivity”; “QVQLVESGGGLVQAGGSLRLSCAASGFIFSGYAMGWYRQAPGKERELVATISGSGGSTYYADSVKGRFTISRDNAKNTVYLQMNSLKPEDTAVYYCAARQRGGYGYWGQGTQVTVSS”: “high polyreactivity”; “QVQLVESGGGLVQAGGSLRLSCAASGFIFSGYAMGWYRQAPGKERELVATISGSGGSTYYADSVKGRFTISRDNAKNTVYLQMNSLKPEDTAVYYCAKRSIVGYRYSGYDYWGQGTQVTVSS”: “high polyreactivity”.
Then “QVQLVESGGGLVQAGGSLRLSCAASGFIFSGYAMGWYRQAPGKEWELVAAISRRGGSTYYADSVKGRFTISRDNAKNTVYLQMNSLKPEDTAVYYCARTTRGSYGKFYYWGQGTQVTVSS”, with “high polyreactivity”.
For “QVQLVESGGGLVQAGGSLRLSCAASGFIFSHYTMGWYRQAPGKERELVAGISWSGGNTYYADSVKGRFTISRDNAKNTVYLQMISLKPEDTAVYYCNADWIGVPLAYDYWGQGTQVTVSS”, the “polyreactivity (PSR sort gate)” value is recorded as “low polyreactivity”.
On to “QVQLVESGGGLVQAGGSLRLSCAASGFIFSINAMGWYRQAPGKERELVADIDTGGSTNYADSVKGRFTISRDNAKNTVYLQMNSLKPEDTAVYYCAAQWYQYPSYISYFTSYDYWGQGTQVTVSS”, for which the “polyreactivity (PSR sort gate)” value is recorded as “low polyreactivity”.
Then “QVQLVESGGGLVQAGGSLRLSCAASGFIFSIYTMGWYRQAPGKERELVAAISWSGGSTYYADSVKGRFTISRDNAKNTVYLQMNSLKPEDTAVYYCNRVQFSPVYRFREYDYWGQGSQVTVSS”, with “high polyreactivity”; and “QVQLVESGGGLVQAGGSLRLSCAASGFIFSKNVMGWYRQAPGKERELVARITRSGGTTYYADSVKGRFTISRDNAKNTVYLQMNSLKPEDTAVYYCAARRYGSTSISWYDYWGQGTQVTVSS”, with “high polyreactivity”; and “QVQLVESGGGLVQAGGSLRLSCAASGFIFSKYARGCYRQAPGKEGELVAAITFSGGSTYYADSVKGRFTISRDNAKNTVYLQMHSLKPEDTAVYYCNAEGSYPDVSPVLGYDYWGQGTQVTVSS”, with “low polyreactivity”.
Then “QVQLVESGGGLVQAGGSLRLSCAASGFIFSKYTMGWYRQAPGKETELVAAISSGGRTYYADSVKGRFTISRDNAKNTVYLQMNSLKPEDTAVYYCAVRGYIASQQAAGGGRNYYYWGQGTQVNVSS”, with “high polyreactivity”; and “QVQLVESGGGLVQAGGSLRLSCAASGFIFSKYVMGWSRQAPGKERELVAAITRSGSSTYYADSVKGRFTISRDNAKNTVYLQMNSLKPEDTAVYYCAADGGYYDDDYWGQGTQVTVSS”, with “high polyreactivity”; and “QVQLVESGGGLVQAGGSLRLSCAASGFIFSLYAMGWYRQAPGKERELVAGISESGGSTYYADSVKGRFTISRDNAKNTVYLQMNSLKPEDTAVYYCNADDTVYFIKAGDYWGQGTQVTVSS”, with “high polyreactivity”.
With “QVQLVESGGGLVQAGGSLRLSCAASGFIFSNNAMGWYRQAPGKERELVAAISGRGGSTYYADSVKGRFTISRDNAKNTVYLQMNSLKPEDTAVYYCNALYTYSYSRFDYWGQGTQVTVSS”, the “polyreactivity (PSR sort gate)” value is recorded as “low polyreactivity”.
On to “QVQLVESGGGLVQAGGSLRLSCAASGFIFSNNAMGWYRQAPGKERELVAVINGGGSTYYADSVKGRFTISRDNAKNTVYLQMNSLKPEDTAVYYCARKSWPKERRVDPGYDYWGQGTQVTVSS”, for which the “polyreactivity (PSR sort gate)” value was “low polyreactivity”.
Next, “QVQLVESGGGLVQAGGSLRLSCAASGFIFSPYAMGGYRHEPGKEREFVAAITSRVGSTYYADSVKGRFTISRDNAKNTVYLQMNSLKPEDTAVYYCAATTDGLVGRPRYDYWGQGTQVTVSS”: “low polyreactivity”.
Then “QVQLVESGGGLVQAGGSLRLSCAASGFIFSQYARGWYRQAPGKERELVAAISYSGGSTYYADSVKGRFTISRDNAKNTVYLQMNSLKPEDTAVYYCAVSGRSYYRSDYWGQGTQVTVSS”, with “high polyreactivity”; and “QVQLVESGGGLVQAGGSLRLSCAASGFIFSRNAMGWYRQAPGKERELVASITRRGGSKYYADSVKGRFTISRDYAKNTVYLQMNSLKPEDTAVYYCAADGYVRPPEMDYWGQGTQVTVSS”, with “high polyreactivity”; and “QVQLVESGGGLVQAGGSLRLSCAASGFIFSRNAMGWYRQAPGKVRELGAAISRVGSTYYADSVKGRFTISRDNAKNTVYLQMYSLKREDTAVYYCARAWGNGGKSIFDYWGQGTQVTVSS”, with “high polyreactivity”.
Regarding “QVQLVESGGGLVQAGGSLRLSCAASGFIFSRYAMGWSRQAPGKERELVAAIRFSGSITYYADSVKGRFTISRDNAKNTVYLQMNSLKPEDTAVYYCAAYRRYYGWYEYWGQGTQVTVSS”, the “polyreactivity (PSR sort gate)” value was “high polyreactivity”.
Next, “QVQLVESGGGLVQAGGSLRLSCAASGFIFSRYAMGWYRQAPGKERELVAAISGRGTSTYYADSVKGRFTISRDNAKNTVYLQMNSLKPEDTAVYYCNTYSQPKWGTSDYDYWGQGTQVTVSS”: “high polyreactivity”; “QVQLVESGGGLVQAGGSLRLSCAASGFIFSRYVMGWYRQAPGKEMELVAVISYRGGSTYYADSVKGRFTISRDNAKNTVYLQMNSLKPEDTAVYYCNADTIPDGEDRYDYWCQGTQVTVSS”: “low polyreactivity”.
Next, “QVQLVESGGGLVQAGGSLRLSCAASGFIFSSNAMGWYRPAPGKERELVARITSSDGSTYYADSVKGRFTISRDNAKNTVYLQMNSLKPEDTAVYYCAKGRDATHYEYYLYSMDYWGQGTQVTVSS”: “low polyreactivity”; “QVQLVESGGGLVQAGGSLRLSCAASGFIFSSYAMGWYRQAPGKERELVAAISRGGSTYYADSVKGRFTISRDNAKNTVYLQMNSLKPEDTAVYYCNARRYRHDGYWGQGTQVTVSS”: “high polyreactivity”.
Next, “QVQLVESGGGLVQAGGSLRLSCAASGFIFSSYAMGWYRQAPGKERELVAAISRSGGRTNYADSVKGRFTISRDNAKNTVYLQMNSLKPEDTAVYYCNADRKYWSLWGPAYDYWGHGTQVTVSS”: “high polyreactivity”; “QVQLVESGGGLVQAGGSLRLSCAASGFIFSTNAKGWYSQAPGKERELVATIRSGVSTYYADSVKGRFTISRDNAKNTVYLQMNSLKPEDTAVYYCNVDDTSRTTSGGRFGQVESDYWGQGTQVTVSS”: “low polyreactivity”.
With “QVQLVESGGGLVQAGGSLRLSCAASGFIFSTYAMGWYRQAPGKERELVAAITTSGSSTYYADSVKGRFTISRDNAKNTVYLQMNSLKPEDTAVYYCNAKYGYSAATDRGNYWGQGTQVTVSS”, the “polyreactivity (PSR sort gate)” value is recorded as “high polyreactivity”.
Consider “QVQLVESGGGLVQAGGSLRLSCAASGFIFSVNTMGWYRQAPGKERELVAAISGSGGSTYYADSVKGRFTISRDNAKITVYFQMNSLKPDDTAVYYCAARYTVTYDYWGQCTQVTVSS”, for which the “polyreactivity (PSR sort gate)” value is given as “high polyreactivity”.
Then “QVQLVESGGGLVQAGGSLRLSCAASGFIFSVNTMGWYRQAPGKERELVAAISGSGGSTYYADSVKGRFTISRDNAKNTVYLQMNSLKPEDTAVYYCAAGVAWRFYSWGQGTQVTVSS”, with “high polyreactivity”.
On to “QVQLVESGGGLVQAGGSLRLSCAASGFIFSVYTMGWYRQAPGKERELVASITGSGGDTYYADSVKGRFTISRDNAKNTVYLQMNSLKPEDTAVYYCNVDAGFHDSYHAWNFRYDYWGQGTQVTVSS”, for which the “polyreactivity (PSR sort gate)” value was “low polyreactivity”.
As for “QVQLVESGGGLVQAGGSLRLSCAASGFIFSWNDLGWYRQATGKERELVAAITSGTGSTYYADSVKGRFTISRDNAKNTVYLQMNSLKPEDTAVYYCAAGTNYGKLRIRFDYWGQGTQVTVSS”, the “polyreactivity (PSR sort gate)” value is on record as “low polyreactivity”.
Then “QVQLVESGGGLVQAGGSLRLSCAASGFIFSWYVMGWYRQAPGKERELVAAISQSGGDTYYADSVKGRFTFSRDNAKNTVYLQMNILKPEDTAVYYCAVGRVGRFYYWGQGTQVTVSS”, with “high polyreactivity”; and “QVQLVESGGGLVQAGGSLRLSCAASGFIFSYNAMGWYRQAPGKERELVAAISSIGSGTYYADSVKGRFTISRDNAKNTVYLQMNSLKPEDTAVYYCAKYLRPRIGSRYYYWGQGTQVTVSS”, with “high polyreactivity”.
On to “QVQLVESGGGLVQAGGSLRLSCAASGFIFSYNAMGWYRQAPGKERELVASISRRSGITYYADSVKGRFTISRDNAKNTVYLQMNSLKPEDTAVYYCAVTQNSKSTKIRPDQGDYWGLGTQVTVSS”, for which the “polyreactivity (PSR sort gate)” value is “high polyreactivity”.
Then “QVQLVESGGGLVQAGGSLRLSCAASGFIFSYYAMGWYRQAPGKERELVAAISRNGGRTYYADSVKGRFTISRDNAKNTVYLQMNSLIPEDTAVYYCAATTYRTSSYIRYGSPKHDDYWGQGTHVTVSS”, with “high polyreactivity”.
Then “QVQLVESGGGLVQAGGSLRLSCAASGFIFSYYAMGWYRQAPGKERELVAAITWDGGSTYYADSVKGRFTISRDNAKNTVYLQMNSLKPEDTAVYYCNAYYYYRRPLEGGYWGQGTQVTVSS”, with “low polyreactivity”; and “QVQLVESGGGLVQAGGSLRLSCAASGFIFSYYAMGWYRQAPGKERELVAAITWSGGGTYYADSVKGRFTISRDNAKNTVYLQMNSLKPEDTAVYYCAAERVYPDGEYWGQGTQVTVSS”, with “high polyreactivity”; and “QVQLVESGGGLVQAGGSLRLSCAASGFIFSYYAMGWYRQAPGKERELVADITSGGSTNYADSVKGRFTISRDNAKNTVYLQMNSLKPEDTAVYYCAATGLPGYYAYDYWGQGTQVTVTS”, with “low polyreactivity”.
Then “QVQLVESGGGLVQAGGSLRLSCAASGFIFSYYAMGWYRQAPGKERELVATINFSGGRTYYADSVKGRFTISRDNEKNTVYLQMNSLKPEDTAVYYCAASFYSYTSRYPDYYYWGQGTQVTVSS”, with “high polyreactivity”; and “QVQLVESGGGLVQAGGSLRLSCAASGFIFSYYTMGWYRQAPGKERELVAAISRNGGSTYYADSVKGRFTISRDNAKNTVYLQMNSLKPEDTAVYYCAKRVFNYQRYDYWGQGTQVSVSS”, with “high polyreactivity”.
